Assay results as given in US20120264231A1, “ASSAY FOR ORAI CALCIUM CHANNEL REGULATORS” (IMMUNE DISEASE INSTITUTE, INC., priority 2009, published 2012).

Biological target: T1, GST-ORAI1 (65-87) (Homo sapiens, UniProt Q96D31)
T1 construct: A plasmid encoding ORAI1 (65-87) as a GST fusion protein; made in house; host or cells: E. coli BL21 (DE3), pGEX-2T
Experiment: GST pull down assay with GST-ORAI1 (65-87)
Assay type: binding
From the text: A conserved region of ORAI1 immediately preceding, and extending into, ORAI1 transmembrane segment 1 is implicated in channel opening (Feske et al., Nature 441: 179-185 (2006); Li et al., J. Biol. Chem. 282: 29448-29456 (2007); Park et al., Cell 136: 876-890 (2009); Derler et al., J. Biol. Chem. 284: 15903-15915 (2009)), and GFP-ORAI1 (48-91) expressed in mammalian cells co-immunoprecipitates with STIM1 (342-448) (Park et al., Cell 136: 876-890 (2009)). Here again, the protein-protein interaction is direct, because purified recombinant STIM1CT bound to purified GST-ORAI1 (65-87) (FIG. 2C).
The cDNAs encoding mouse STIM 1^CT fragments (residues 233-685, 233-666, 233-600, 233-531, 233-498, or 233-463) were amplified via PCR and cloned into the pProEX HTb vector (Invitrogen) between the BamHI and XhoI sites for expression as His-tagged proteins. For production of the C-terminal cytoplasmic tail of ORAI 1 as a GST fusion protein, coupled to GST through the flexible linker—GSGSRGSPEF—(SEQ ID NO: 1), cDNA encoding ORAI1 residues 259-301 was amplified using PCR and cloned into the pGEX-4T-1 vector (GE Healthcare) between the BamHI and NotI sites. A plasmid encoding ORAI1 (65-87) as a GST fusion protein with the linker—GSGGGS—(SEQ ID NO: 9) was produced by inserting the corresponding Cdna into the pGEX-2T vector (GE Healthcare). […]

T1 sequence (Q96D31 65-87 limits assumed): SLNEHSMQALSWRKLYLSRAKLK

STIM1^CT: cytoplasmic region of STIM1, mouse residues 233-685, His-tagged recombinant protein expressed in E coli
binding to purified GST-ORAI1 (65-87): bound
strength of interaction compared with STIM1^CT-ORAI1^CT interaction: weaker
